# Values joined by “and” are separate entries in the source; they are usually repeats but may differ in a detail not shown here. Equal values may be shown once. Read-outs that look alike come from different tables or passages of the source.
# T1: cynomolgus IL-17A (cynomolgus, UniProt Q16552 24-155 (human entry), limits assumed)
# T1 chain: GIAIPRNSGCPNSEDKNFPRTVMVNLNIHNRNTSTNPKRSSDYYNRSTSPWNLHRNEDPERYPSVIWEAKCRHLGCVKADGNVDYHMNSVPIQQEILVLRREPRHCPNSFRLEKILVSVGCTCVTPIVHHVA
# T2: human IL-17D (Peprotech) (human, UniProt Q8TAD2 18-202, limits assumed)
# T2 sequence (looked up): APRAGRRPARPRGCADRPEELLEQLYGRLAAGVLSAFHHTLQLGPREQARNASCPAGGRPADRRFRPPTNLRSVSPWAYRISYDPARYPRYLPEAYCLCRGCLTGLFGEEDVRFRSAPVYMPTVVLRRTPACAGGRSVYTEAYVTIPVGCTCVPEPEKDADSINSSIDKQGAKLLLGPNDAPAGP
# T3: human IL-17B (Peprotech) (human, UniProt Q9UHF5 21-180, limits assumed)
# T3 sequence (looked up): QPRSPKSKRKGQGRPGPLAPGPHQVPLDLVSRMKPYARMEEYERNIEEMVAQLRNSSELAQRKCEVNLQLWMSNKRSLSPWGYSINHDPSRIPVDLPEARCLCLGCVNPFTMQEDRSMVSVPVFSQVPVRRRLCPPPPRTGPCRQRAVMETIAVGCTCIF
# T4: human IL-17E (R & D Systems) (human, UniProt Q9H293 33-177)
# T4 sequence (looked up): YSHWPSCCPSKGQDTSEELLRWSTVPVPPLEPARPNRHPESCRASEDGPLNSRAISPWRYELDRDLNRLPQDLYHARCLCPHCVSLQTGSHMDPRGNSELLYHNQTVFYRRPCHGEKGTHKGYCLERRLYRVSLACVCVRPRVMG
# T5: human IL-17F (Peprotech) (human, UniProt Q96PD4 31-163, limits assumed)
# T5 sequence (looked up): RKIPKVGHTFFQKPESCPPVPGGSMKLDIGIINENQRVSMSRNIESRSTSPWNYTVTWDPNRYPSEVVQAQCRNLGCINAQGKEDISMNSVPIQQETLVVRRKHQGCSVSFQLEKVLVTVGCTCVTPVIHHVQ
# T6: human IL-17C (R & D Systems) (human, UniProt Q9P0M4 19-197)
# T6 sequence (looked up): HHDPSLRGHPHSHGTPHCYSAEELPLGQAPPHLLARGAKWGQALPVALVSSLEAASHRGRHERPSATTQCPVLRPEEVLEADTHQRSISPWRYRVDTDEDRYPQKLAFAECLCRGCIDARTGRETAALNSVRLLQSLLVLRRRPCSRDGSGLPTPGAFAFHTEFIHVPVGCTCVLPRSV
# B1: murine IL-17A (R & D Systems) (ligand, UniProt Q62386 22-158, looked up)
# chain: TVKAAAIIPQSSACPNTEAKDFLQNVKVNLKVFNSLGAKVSSRRPSDYLNRSTSPWTLHRNEDPDRYPSVIWEAQCRHQRCVNAEGKLDHHMNSVLIQQEILVLKREPESCPFTFRVEKMLVGVGCTCVASIVRQAA
# Experiments:
# [1] = molecular target: TINA10 IgG; assay: DELFIA epitope competition vs biotinylated human IL-17A on immobilised IgG
# [2] = molecular target: TINA51 IgG; assay: as above
# [3] = molecular target: TINA1 IgG; assay: as above
# [4] = molecular target: T1, cynomolgus IL-17A; assay: cell-based or functional assay
# [5] = molecular target: T7, human IL-17A derived from the HEK-EBNA expression system (human, UniProt Q16552 24-155); assay: cell-based or functional assay
# [6] = molecular target: T8, human IL-17A, untagged, E. coli derived (in house or Peprotech) (human, UniProt Q16552 24-155); assay: cell-based or functional assay
# [7] = molecular target: T2, human IL-17D (Peprotech); assay: DELFIA epitope competition vs biotinylated human IL-17A on immobilised IgG
# [8] = molecular target: T3, human IL-17B (Peprotech); assay: as above
# [9] = molecular target: T4, human IL-17E (R & D Systems); assay: as above
# [10] = molecular target: T5, human IL-17F (Peprotech); assay: as above
# [11] = molecular target: T6, human IL-17C (R & D Systems); assay: as above
# [12] = molecular target: B1; assay: as above
# [13] = molecular target: human IL-17A (HT1080 assay of Example 1, source not stated) (human, UniProt Q16552 24-155); assay: cell-based or functional assay
# [14] = molecular target: T1, cynomolgus IL-17A; assay: cell-based or functional assay
# [15] = molecular target: T8, human IL-17A, untagged, E. coli derived …; assay: cell-based or functional assay; remark: listed apart in the source
# [16] = molecular target: T8, human IL-17A, untagged, E. coli derived …; assay: cell-based or functional assay; remark: listed apart in the source
# [17] = molecular target: T8, human IL-17A, untagged, E. coli derived …; assay: cell-based or functional assay; remark: listed apart in the source
# [18] = molecular target: T2, human IL-17D (Peprotech); assay: HTRF epitope competition vs HIS FLAG IL-17A binding the IgG
# [19] = molecular target: T3, human IL-17B (Peprotech); assay: as above
# [20] = molecular target: T4, human IL-17E (R & D Systems); assay: as above
# [21] = molecular target: T5, human IL-17F (Peprotech); assay: as above
# [22] = molecular target: T6, human IL-17C (R & D Systems); assay: as above
# [23] = molecular target: B1; assay: as above
# [24] = molecular target: T8, human IL-17A, untagged, E. coli derived …; assay: cell-based or functional assay; remark: listed apart in the source
# [25] = molecular target: native IL-17A derived from primary human T cells (human, UniProt Q16552 24-155, N-linked glycosylation); assay: cell-based or functional assay
# [26] = molecular target: T7, human IL-17A derived from the HEK-EBNA …; assay: cell-based or functional assay; remark: listed apart in the source
# [27] = molecular target: T7, human IL-17A derived from the HEK-EBNA …; assay: estimated from pA2 (Schild) analysis in the HT1080 IL-6 release assay
# [28] = molecular target: T8, human IL-17A, untagged, E. coli derived …; assay: cell-based or functional assay; remark: listed apart in the source
binder,measurement,setting,value
B1,"% (printed in the IC50 column, presumably inhibition)",[1],50%
same,Fold difference from Human IL-17A,[2],0.7 fold
same,IC50,[2],35 nM
same,Fold difference from Human IL-17A,[3],12 fold
same,IC50,[3],98 nM
"Antibody 1 IgG1 (antibody, V domains shown, human IgG1, lambda; constant regions not in the listing; also called Antibody 01; TINA12 IgG1) VH: not shown VL: NFMLTQPHSVSESPGKTVTISCTRSSGSLANYYVQWYQQRPGSAPTIVIFANNQRPSGVPDRFSGSIDSSSNSASLTISRLKTEDEADYYCQSYDDSSVVFGGGTKLTVL",Fold difference in cross-reactivity (IgG),[4],6 fold
same,"HT1080 IL-6 release, IgG IC50",[4],144 nM
same,"HT1080 IL-6 release, IgG IC50",[5],23 nM
same,"chondrocyte MMP13 release, IC50 at 2 nM IL-17A",[6],147 nM and > 400 nM
same,"chondrocyte MMP13 release, geometric mean IC50 at 0.2 nM IL-17A",[6],110 nM
same,binding result,[7],no binding (tested: approx 100:1 over labelled IL-17A)
same,binding result,[8],no binding (tested: approx 100:1 over labelled IL-17A)
same,binding result,[9],no binding (tested: approx 100:1 over labelled IL-17A)
same,binding result,[10],no binding (tested: approx 100:1 over labelled IL-17A)
same,binding result,[11],no binding (tested: approx 100:1 over labelled IL-17A)
same,binding result,[12],no binding (tested: approx 100:1 over labelled IL-17A)
same,"HT1080 IL-6 release, IgG IC50",[13],22 nM
same,"HT1080 IL-6 release, IgG IC50",[14],172 nM
same,"chondrocyte IL-8 release, geometric mean IC50 at 0.2 nM IL-17A",[15],18.1 nM
same,"chondrocyte IL-8 release, geometric mean IC50 at 2 nM IL-17A",[15],44.5 nM
same,"chondrocyte IL-6 release, geometric mean IC50 at 0.2 nM IL-17A",[16],29.9 nM
same,"chondrocyte IL-6 release, geometric mean IC50 at 2 nM IL-17A",[16],75.7 nM
"Antibody 2 IgG1 (antibody, V domains shown, human IgG1, lambda; constant regions not in the listing; also called Antibody 02) VH: not shown VL: NFMLTQPHSVSESPGKTVTISCTRSSGSLANYYVQWYQQRPGSSPTIVIFANNQRPSGVPDRFSGSIDSSSNSASLTISGLKTEDEADYYCQSYDPHSVVFGGGTKLTVL","chondrocyte IL-8 release, geometric mean IC50 at 0.2 nM IL-17A",[17],1.49 nM
same,"chondrocyte IL-8 release, geometric mean IC50 at 2 nM IL-17A",[17],7.18 nM
same,binding result,[18],no binding
same,binding result,[19],no binding
same,binding result,[20],no binding
same,binding result,[21],no binding
same,binding result,[22],no binding
same,binding result,[23],no binding
same,Fold difference in cross-reactivity (IgG),[4],12 fold
same,"HT1080 IL-6 release, IgG IC50",[4],18.3 nM
same,"HT1080 IL-6 release, IgG IC50",[5],1.5 nM
same,"cartilage explant synergised IL-6 response, Mean IC50",[24],3.39 nM
same,"T cell supernatant induced IL-6 production in HT1080 cells, IC50",[25],0.25 nM
same,"HT1080 synergised IL-6 release (125 pM human IL-17 + 25 pM human TNFα), IgG IC50",[26],0.41 nM
same,"chondrocyte IL-8 release, geometric mean IC50 at 0.2 nM IL-17A",[15],2.3 nM
same,"chondrocyte IL-8 release, geometric mean IC50 at 2 nM IL-17A",[15],7.91 nM
same,Kd,[27],0.188 nM
same,"chondrocyte IL-6 release, geometric mean IC50 at 0.2 nM IL-17A",[28],1.52 nM
same,"chondrocyte IL-6 release, geometric mean IC50 at 2 nM IL-17A",[28],5.51 nM

# From US20080044423A1 (AstraZeneca / MedImmune, published 2008)
